Assay [1] concerns the target T1, mouse PD-1 (mouse, UniProt Q02242 25-167, limits assumed).
T1 construct: also called mPD-1
T1 sequence (looked up): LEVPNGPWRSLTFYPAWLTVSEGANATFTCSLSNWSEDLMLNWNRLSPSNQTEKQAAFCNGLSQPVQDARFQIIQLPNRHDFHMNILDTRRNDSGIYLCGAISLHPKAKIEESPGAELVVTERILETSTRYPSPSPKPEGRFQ
Nature of the assay: Kd column of Table 22; same value as PD-L2(mut2)-Fc in Table 21.

Assay [2] concerns the target T1, mouse PD-1. Description: method not named.
The target of assay [3] is T2, human PD-1 (human, UniProt Q15116 25-167, limits assumed).
T2 construct: nivolumab is called an anti-human PD-1 antibody; also called hPD-1
Nature of the assay: method not named.

Assay [4] has as its target T1, mouse PD-1. Description: Kd column of Table 22; same value as PD-L2(WT)-Fc in Table 21.
The target in assay [5] is T1, mouse PD-1. Nature of the assay: affinity in PD-L1-Fc format; N/A indicates non-detectable PD-1 binding.
Assay [6] deals with T2, human PD-1. Described as above.
Assay [7] concerns the target T1, mouse PD-1. Description: Kd column of Table 22; same value as PD-L1(mut2)-Fc in Table 20.
The target in assay [8] is human IL-12 receptor complex (human, UniProt P42701 24-662; Q99665 24-862). Nature of the assay: cell-based or functional assay.
For assay [9], the target named is human PD-1 overexpressed on HEK-Blue reporter cells (human, UniProt Q15116 25-288). Description: cell-based or functional assay.

Substitutions are numbered along the chain they refer to. Names may count otherwise.

One may read the Kd as the free concentration of one partner at which half of the binding sites on the other are occupied at equilibrium, for simple one-to-one binding. The low end stands for higher affinity, the high end for lower affinity.

T2 sequence (Q15116 25-167 limits assumed): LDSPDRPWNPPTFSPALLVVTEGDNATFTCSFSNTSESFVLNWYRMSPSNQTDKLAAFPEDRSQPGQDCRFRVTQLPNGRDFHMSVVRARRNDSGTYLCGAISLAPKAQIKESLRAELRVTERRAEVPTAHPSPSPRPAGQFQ
Sequence of human IL-12 receptor complex (Q99665 24-862, chain 2 of 2, other chains not shown): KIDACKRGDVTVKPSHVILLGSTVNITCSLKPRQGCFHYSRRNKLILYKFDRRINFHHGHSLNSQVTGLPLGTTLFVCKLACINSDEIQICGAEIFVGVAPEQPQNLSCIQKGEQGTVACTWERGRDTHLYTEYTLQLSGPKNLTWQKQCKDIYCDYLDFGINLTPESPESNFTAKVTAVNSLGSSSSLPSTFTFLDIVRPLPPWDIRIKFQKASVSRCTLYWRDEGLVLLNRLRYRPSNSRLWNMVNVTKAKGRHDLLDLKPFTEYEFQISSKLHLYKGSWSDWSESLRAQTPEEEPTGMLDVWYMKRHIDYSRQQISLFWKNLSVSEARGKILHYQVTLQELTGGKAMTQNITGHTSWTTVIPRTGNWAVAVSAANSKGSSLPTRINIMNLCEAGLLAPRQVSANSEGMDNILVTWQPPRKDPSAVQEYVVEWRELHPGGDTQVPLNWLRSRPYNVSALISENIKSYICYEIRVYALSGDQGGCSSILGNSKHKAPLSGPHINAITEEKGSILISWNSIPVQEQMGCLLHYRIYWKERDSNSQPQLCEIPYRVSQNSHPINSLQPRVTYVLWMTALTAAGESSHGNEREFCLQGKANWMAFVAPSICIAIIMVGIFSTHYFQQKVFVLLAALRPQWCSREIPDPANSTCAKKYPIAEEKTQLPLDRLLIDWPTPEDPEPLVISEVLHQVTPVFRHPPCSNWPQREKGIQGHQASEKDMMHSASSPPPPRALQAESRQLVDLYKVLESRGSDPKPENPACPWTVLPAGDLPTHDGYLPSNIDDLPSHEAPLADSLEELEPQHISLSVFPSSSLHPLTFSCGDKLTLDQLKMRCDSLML
Sequence of human PD-1 overexpressed on HEK-Blue reporter cells (Q15116 25-288): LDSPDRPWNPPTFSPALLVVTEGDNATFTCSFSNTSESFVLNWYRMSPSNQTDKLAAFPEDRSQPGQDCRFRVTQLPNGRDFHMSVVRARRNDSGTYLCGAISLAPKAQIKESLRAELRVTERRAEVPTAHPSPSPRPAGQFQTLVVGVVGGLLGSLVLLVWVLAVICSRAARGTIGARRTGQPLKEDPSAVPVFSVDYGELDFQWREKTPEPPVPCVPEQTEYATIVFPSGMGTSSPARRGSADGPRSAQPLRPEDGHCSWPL

B1: IL-12(E59A/F60A)/PD-L2(mut2)-Fc (Fc fusion)
chain 1: LFTVTVPKELYIIEHGSNVTLECNFDTGSHVNLGAITAVLQKVENDTSPHRERATLLEEQLPLGKASFHIPQVQVRDEGQYQCIIIYGVAWDYKYLTLKVKASYRKINTHILKVPETDEVELTCQATGYPLAEVSWPNVSVPANTSHSRTPEGLYQVTSVLRLKPPPGRNFSCVFWNTHVRELTLASIDLQSQMEPRTHPTGGGGSGGGIWELKKDVYVVELDWYPDAPGEMVVLTCDTPEEDGITWTLDQSSEVLGSGKTLTIQVKAAGDAGQYTCHKGGEVLSHSLLLLHKKEDGIWSTDILKDQKEPKNKTFLRCEAKNYSGRFTCWWLTTISTDLTFSVKSSRGSSDPQGVTCGAATLSAERVRGDNKEYEYSVECQEDSACPAAEESLPIEVMVDAVHKLKYENYTSSFFIRDIIKPDPPKNLQLKPLKNSRQVEVSWEYPDTWSTPHSYFSLTFCVQVQGKSKREKKDRVFTDKTSATVICRKNASISVRAQDRYYSSSWSEWASVPCSGGGGSGGGSGGGGSRNLPVATPDPGMFPCLHHSQNLLRAVSNMLQKARQTLEFYPCTSEEIDHEDITKDKTSTVEACLPLELTKNESCLNSRETSFITNGSCLASRKTSFMMALCLSSIYEDLKMYQVEFKTMNAKLLMDPKRQIFLDQNMLAVIDELMQALNFNSETVPQKSSLEEPDFYKTKIKLCILLHAFRIRAVTIDRVMSYLNASGGGGSGGGDKTHTCPPCPAPEDEGGPSVFLFPPKPKDTLMISRTPEVTCVVVDVSHEDPEVKFNWYVDGVEVHNAKTKPREEQYNSTYRVVSVLTVLHQDWLNGKEYKCKVSNKALPAPIEKTISKAKGQPREPQVYVYPPSREEMTKNQVSLTCLVKGFYPSDIAVEWESNGQPENNYKTTPPVLDEDGSFALVSKLTVDKSRWQQGNVFSCSVMHEALHNHYTQKSLSLSPGK
chain 2: LFTVTVPKELYIIEHGSNVTLECNFDTGSHVNLGAITAVLQKVENDTSPHRERATLLEEQLPLGKASFHIPQVQVRDEGQYQCIIIYGVAWDYKYLTLKVKASYRKINTHILKVPETDEVELTCQATGYPLAEVSWPNVSVPANTSHSRTPEGLYQVTSVLRLKPPPGRNFSCVFWNTHVRELTLASIDLQSQMEPRTHPTGGGGSGGGDKTHTCPPCPAPEKKGGPSVFLFPPKPKDTLMISRTPEVTCVVVDVSHEDPEVKFNWYVDGVEVHNAKTKPREEQYNSTYRVVSVLTVLHQDWLNGKEYKCKVSNKALPAPIEKTISKAKGQPREPQVYVLPPSREEMTKNQVSLLCLVKGFYPSDIAVEWESNGQPENRYMTWPPVLDSDGSFFLYSKLTVDKSRWQQGNVFSCSVMHEALHNHYTQKSLSLSPGK
notes: also called IL-12(E59A/F60A)/PD-L2(S58V)-Fc
For the molecule B1, the Kd in the assay with mouse PD-1 [1] was 230 nM; in the assay with mouse PD-1 [2], roughly 100 nM; with human PD-1 [3], roughly 100 nM.

B2: IL-12(E59A/F60A)/PD-L2(WT)-Fc (Fc fusion)
chain 1: LFTVTVPKELYIIEHGSNVTLECNFDTGSHVNLGAITASLQKVENDTSPHRERATLLEEQLPLGKASFHIPQVQVRDEGQYQCIIIYGVAWDYKYLTLKVKASYRKINTHILKVPETDEVELTCQATGYPLAEVSWPNVSVPANTSHSRTPEGLYQVTSVLRLKPPPGRNFSCVFWNTHVRELTLASIDLQSQMEPRTHPTGSGIWELKKDVYVVELDWYPDAPGEMVVLTCDTPEEDGITWTLDQSSEVLGSGKTLTIQVKAAGDAGQYTCHKGGEVLSHSLLLLHKKEDGIWSTDILKDQKEPKNKTFLRCEAKNYSGRFTCWWLTTISTDLTFSVKSSRGSSDPQGVTCGAATLSAERVRGDNKEYEYSVECQEDSACPAAEESLPIEVMVDAVHKLKYENYTSSFFIRDIIKPDPPKNLQLKPLKNSRQVEVSWEYPDTWSTPHSYFSLTFCVQVQGKSKREKKDRVFTDKTSATVICRKNASISVRAQDRYYSSSWSEWASVPCSGGGGSGGGGSGGGGSGGGGSGRNLPVATPDPGMFPCLHHSQNLLRAVSNMLQKARQTLEFYPCTSEEIDHEDITKDKTSTVEACLPLELTKNESCLNSRETSFITNGSCLASRKTSFMMALCLSSIYEDLKMYQVEFKTMNAKLLMDPKRQIFLDQNMLAVIDELMQALNFNSETVPQKSSLEEPDFYKTKIKLCILLHAFRIRAVTIDRVMSYLNASDKTHTCPPCPAPEDEGGPSVFLFPPKPKDTLMISRTPEVTCVVVDVSHEDPEVKFNWYVDGVEVHNAKTKPREEQYNSTYRVVSVLTVLHQDWLNGKEYKCKVSNKALPAPIEKTISKAKGQPREPQVYVYPPSREEMTKNQVSLTCLVKGFYPSDIAVEWESNGQPENNYKTTPPVLDEDGSFALVSKLTVDKSRWQQGNVFSCSVMHEALHNHYTQKSLSLSPGK
chain 2: LFTVTVPKELYIIEHGSNVTLECNFDTGSHVNLGAITASLQKVENDTSPHRERATLLEEQLPLGKASFHIPQVQVRDEGQYQCIIIYGVAWDYKYLTLKVKASYRKINTHILKVPETDEVELTCQATGYPLAEVSWPNVSVPANTSHSRTPEGLYQVTSVLRLKPPPGRNFSCVFWNTHVRELTLASIDLQSQMEPRTHPTGSGDKTHTCPPCPAPEKKGGPSVFLFPPKPKDTLMISRTPEVTCVVVDVSHEDPEVKFNWYVDGVEVHNAKTKPREEQYNSTYRVVSVLTVLHQDWLNGKEYKCKVSNKALPAPIEKTISKAKGQPREPQVYVLPPSREEMTKNQVSLLCLVKGFYPSDIAVEWESNGQPENRYMTWPPVLDSDGSFFLYSKLTVDKSRWQQGNVFSCSVMHEALHNHYTQKSLSLSPGK
notes: also called IL-12(E59A/F60A)/PD-L2-Fc immunocytokine; construct #29
B2 displayed a Kd in the assay with mouse PD-1 [4] of 980 nM.

B3: PD-L1(mut1)-Fc (Fc fusion)
chain 1: FTVTVPKDLYVVEYGSNMTIECKFPVEKQLDLAALIVYWMMEDKNIIQFVHGEEDLKVQHSSYRQRARLLKDQLSLGNAALQITDVKLQDAGVYTCLIAYKGADYKRITVKVNAPYNKINQRILVVDPVTSEHELTCQAEGYPKAEVIWTSSDHQVLSGKTTTTNSKREEKLFNVTSTLRINTTTNEIFYCTFRRLDPEENHTAELVIPELPLAHPPNERDKTHTCPPCPAPEDEGGPSVFLFPPKPKDTLMISRTPEVTCVVVDVSHEDPEVKFNWYVDGVEVHNAKTKPREEQYNSTYRVVSVLTVLHQDWLNGKEYKCKVSNKALPAPIEKTISKAKGQPREPQVYVYPPSREEMTKNQVSLTCLVKGFYPSDIAVEWESNGQPENNYKTTPPVLDEDGSFALVSKLTVDKSRWQQGNVFSCSVMHEALHNHYTQKSLSLSPGK
chain 2: B3 chain 1 with D234K, E235K, Y351L, T366L, N390R, K392M, T394W, E400S, A405F, V407Y
notes: also called E58M/R113T/M115L/S117A/G119K
With B3, the binding result with mouse PD-1 [5] and with human PD-1 [6] was “no binding” in each case.

B4: IL-12(E59A/F60A)/PD-L1(mut2)-Fc (Fc fusion)
chain 1: FTVTVPKDLYVVEYGSNMTIECKFPVEKQLDLAALQVYWMMEDKNIIQFVHGEEDLKVQHSSYRQRARLLKDQLSLGNAALQITDVKLQDAGVYTCLIAYKGADYKRITVKVNAPYNKINQRILVVDPVTSEHELTCQAEGYPKAEVIWTSSDHQVLSGKTTTTNSKREEKLFNVTSTLRINTTTNEIFYCTFRRLDPEENHTAELVIPELPLAHPPNERGGGGSGGGIWELKKDVYVVELDWYPDAPGEMVVLTCDTPEEDGITWTLDQSSEVLGSGKTLTIQVKAAGDAGQYTCHKGGEVLSHSLLLLHKKEDGIWSTDILKDQKEPKNKTFLRCEAKNYSGRFTCWWLTTISTDLTFSVKSSRGSSDPQGVTCGAATLSAERVRGDNKEYEYSVECQEDSACPAAEESLPIEVMVDAVHKLKYENYTSSFFIRDIIKPDPPKNLQLKPLKNSRQVEVSWEYPDTWSTPHSYFSLTFCVQVQGKSKREKKDRVFTDKTSATVICRKNASISVRAQDRYYSSSWSEWASVPCSGGGGSGGGSGGGGSRNLPVATPDPGMFPCLHHSQNLLRAVSNMLQKARQTLEFYPCTSEEIDHEDITKDKTSTVEACLPLELTKNESCLNSRETSFITNGSCLASRKTSFMMALCLSSIYEDLKMYQVEFKTMNAKLLMDPKRQIFLDQNMLAVIDELMQALNFNSETVPQKSSLEEPDFYKTKIKLCILLHAFRIRAVTIDRVMSYLNASGGGGSGGGDKTHTCPPCPAPEDEGGPSVFLFPPKPKDTLMISRTPEVTCVVVDVSHEDPEVKFNWYVDGVEVHNAKTKPREEQYNSTYRVVSVLTVLHQDWLNGKEYKCKVSNKALPAPIEKTISKAKGQPREPQVYVYPPSREEMTKNQVSLTCLVKGFYPSDIAVEWESNGQPENNYKTTPPVLDEDGSFALVSKLTVDKSRWQQGNVFSCSVMHEALHNHYTQKSLSLSPGK
chain 2: FTVTVPKDLYVVEYGSNMTIECKFPVEKQLDLAALQVYWMMEDKNIIQFVHGEEDLKVQHSSYRQRARLLKDQLSLGNAALQITDVKLQDAGVYTCLIAYKGADYKRITVKVNAPYNKINQRILVVDPVTSEHELTCQAEGYPKAEVIWTSSDHQVLSGKTTTTNSKREEKLFNVTSTLRINTTTNEIFYCTFRRLDPEENHTAELVIPELPLAHPPNERGGGGSGGGDKTHTCPPCPAPEKKGGPSVFLFPPKPKDTLMISRTPEVTCVVVDVSHEDPEVKFNWYVDGVEVHNAKTKPREEQYNSTYRVVSVLTVLHQDWLNGKEYKCKVSNKALPAPIEKTISKAKGQPREPQVYVLPPSREEMTKNQVSLLCLVKGFYPSDIAVEWESNGQPENRYMTWPPVLDSDGSFFLYSKLTVDKSRWQQGNVFSCSVMHEALHNHYTQKSLSLSPGK
notes: also called IL-12(E59A/F60A)/PD-L1(I54Q/E58M/R113T/M115L/S117A/G119K)-Fc
For the molecule B4, the Kd is 120 nM in the assay with mouse PD-1 [7], roughly 100 nM with mouse PD-1 [2] and roughly 100 nM with human PD-1 [3]. The “IL-12 signal transduction, % of rIL-12, HEK-IL-12 cells” value in [8] was less than 0.2%. Further, in [9], the “IL-12 signal transduction, % of rIL-12, HEK-IL-12-PD-1 cells” value was determined as 24%.
